Laboratory results published in patent US20230365675A1 (published 2023).

How the values were obtained:
[1] = biological target: Biotinylated CD33 protein (UniProt P20138); experiment: Octet competition on biotinylated CD33; competitor 426
[2] = biological target: Biotinylated CD33 protein (UniProt P20138); experiment: Octet competition on biotinylated CD33; competitor h195
[3] = biological target: Biotinylated CD33 protein (UniProt P20138); experiment: Octet competition on biotinylated CD33; competitor 389
[4] = biological target: T1, Mutant CD33-GFP M7 (R98D) on 293FT cells (UniProt P20138 18-364); experiment: FACS, mutant CD33-GFP on 293FT cells
T1 construct: whole, on cells; not shown: GFP fused to CD33

[5] = biological target: T2, Mutant CD33-GFP M8 (K52A) on 293FT cells (UniProt P20138 18-364); experiment: FACS, mutant CD33-GFP on 293FT cells
T2 construct: whole, on cells; not shown: GFP fused to CD33

[6] = biological target: T3, Mutant CD33-GFP M6 (F43N) on 293FT cells (UniProt P20138 18-364); experiment: FACS, mutant CD33-GFP on 293FT cells
T3 construct: whole, on cells; not shown: GFP fused to CD33

[7] = biological target: Biotinylated CD33 protein (UniProt P20138); experiment: Octet competition on biotinylated CD33; competitor 353
[8] = biological target: Biotinylated CD33 protein (UniProt P20138); experiment: Octet competition on biotinylated CD33; competitor 430
[9] = biological target: Biotinylated CD33 protein (UniProt P20138); experiment: Octet competition on biotinylated CD33; competitor 424
[10] = biological target: Biotinylated CD33 protein (UniProt P20138); experiment: Octet competition on biotinylated CD33; competitor 413
[11] = biological target: T4, Mutant CD33-GFP M1 (W22A) on 293FT cells (UniProt P20138 18-364); experiment: FACS, mutant CD33-GFP on 293FT cells
T4 construct: whole, on cells; not shown: GFP fused to CD33

[12] = biological target: T5, Mutant CD33-GFP M2 (H45E) on 293FT cells (UniProt P20138 18-364); experiment: FACS, mutant CD33-GFP on 293FT cells
T5 construct: whole, on cells; not shown: GFP fused to CD33

[13] = biological target: T6, Mutant CD33-GFP M3 (N99A) on 293FT cells (UniProt P20138 18-364); experiment: FACS, mutant CD33-GFP on 293FT cells
T6 construct: whole, on cells; not shown: GFP fused to CD33

CD33 on MOLM-13 cells = biological target: T7, CD33 on MOLM-13 cells (human, UniProt P20138 18-364); experiment: FACS, MOLM-13 cells expressing CD33 against MOLM-13 CD33 knockout
T7 construct: whole, on cells; also called MOLM-13 cell line expressing CD33; wild-type MOLM-13 cells (CD33+)
Text: A naïve llama phage library was panned and screened to identify single domain antibodies that specifically recognize CD33. A MOLM-13 cell line expressing CD33 was used as a CD33-positive cell line, and a MOLM-13 cell line harboring a knockout of CD33 was used as a CD-33 negative cell line. A purified anti-human CD33 antibody was used as a positive control. Specific binding activity of identified binders was confirmed by FACS. The heavy chain variable region sequences of the identified binders are included herein.

[14] = biological target: Biotinylated CD33 protein (UniProt P20138); experiment: Octet competition on biotinylated CD33; competitor 420
[15] = biological target: Mutant CD33-GFP M11 (L78T) on 293FT cells (UniProt P20138); experiment: FACS, mutant CD33-GFP on 293FT cells
[16] = biological target: Mutant CD33-GFP M14 (E170R) on 293FT cells (UniProt P20138); experiment: FACS, mutant CD33-GFP on 293FT cells
[17] = biological target: Mutant CD33-GFP N20D on 293FT cells (UniProt P20138); experiment: FACS, mutant CD33-GFP on 293FT cells
[18] = biological target: Mutant CD33-GFP JS23 (L23N) on 293FT cells (UniProt P20138); experiment: FACS, mutant CD33-GFP on 293FT cells
[19] = biological target: Mutant CD33-GFP JS25 (V25M) on 293FT cells (UniProt P20138); experiment: FACS, mutant CD33-GFP on 293FT cells
[20] = biological target: Mutant CD33-GFP M9 (Y49, 50A) on 293FT cells (UniProt P20138); experiment: FACS, mutant CD33-GFP on 293FT cells
[21] = biological target: Mutant CD33-GFP M10 (Y127A) on 293FT cells (UniProt P20138); experiment: FACS, mutant CD33-GFP on 293FT cells
[22] = biological target: Mutant CD33-GFP M13 (R91E) on 293FT cells (UniProt P20138); experiment: FACS, mutant CD33-GFP on 293FT cells
[23] = biological target: Mutant CD33-GFP M15 (Q171A) on 293FT cells (UniProt P20138); experiment: FACS, mutant CD33-GFP on 293FT cells
[24] = biological target: Mutant CD33-GFP JS28 (S28L) on 293FT cells (UniProt P20138); experiment: FACS, mutant CD33-GFP on 293FT cells
[25] = biological target: Mutant CD33-GFP M17 (F21Y) on 293FT cells (UniProt P20138); experiment: FACS, mutant CD33-GFP on 293FT cells
[26] = biological target: Mutant CD33-GFP M16 (4889AII) on 293FT cells (UniProt P20138); experiment: FACS, mutant CD33-GFP on 293FT cells
[27] = biological target: Mutant CD33-GFP M18 (353AAL) on 293FT cells (UniProt P20138); experiment: FACS, mutant CD33-GFP on 293FT cells
[28] = biological target: Mutant CD33-GFP M19 (348ATAI) on 293FT cells (UniProt P20138); experiment: FACS, mutant CD33-GFP on 293FT cells
[29] = biological target: Mutant CD33-GFP M4 (R122D) on 293FT cells (UniProt P20138); experiment: FACS, mutant CD33-GFP on 293FT cells
[30] = biological target: Mutant CD33-GFP M12 (G88S) on 293FT cells (UniProt P20138); experiment: FACS, mutant CD33-GFP on 293FT cells
[31] = biological target: Mutant CD33-GFP JS24 (Q24E) on 293FT cells (UniProt P20138); experiment: FACS, mutant CD33-GFP on 293FT cells
[32] = biological target: Mutant CD33-GFP M5 (AEAD), quadruple mutant, on 293FT cells (UniProt P20138); experiment: FACS, mutant CD33-GFP on 293FT cells
[33] = biological target: CD33-GFP fusion protein, wild type (WT), on 293FT cells (UniProt P20138); experiment: FACS, WT CD33-GFP on 293FT cells
[34] = biological target: Biotinylated CD33 protein (UniProt P20138); experiment: Octet competition on biotinylated CD33; competitor 429
[35] = biological target: Biotinylated CD33 protein (UniProt P20138); experiment: Octet competition on biotinylated CD33; competitor 348
[36] = biological target: Biotinylated CD33 protein (UniProt P20138); experiment: Octet competition on biotinylated CD33; competitor 416

Chain of Mutant CD33-GFP M11 (L78T) on 293FT cells (P20138 18-364 L78T): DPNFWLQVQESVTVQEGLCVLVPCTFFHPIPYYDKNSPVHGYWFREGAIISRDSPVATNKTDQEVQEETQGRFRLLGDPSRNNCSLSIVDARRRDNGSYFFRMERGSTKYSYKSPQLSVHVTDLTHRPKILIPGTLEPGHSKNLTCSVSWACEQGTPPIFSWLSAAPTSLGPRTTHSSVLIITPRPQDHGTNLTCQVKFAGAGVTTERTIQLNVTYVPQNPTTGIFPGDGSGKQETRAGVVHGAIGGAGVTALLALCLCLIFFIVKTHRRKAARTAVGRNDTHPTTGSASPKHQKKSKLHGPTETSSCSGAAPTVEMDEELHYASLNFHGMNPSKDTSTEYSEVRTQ
Chain of Biotinylated CD33 protein (P20138 18-259 limits assumed): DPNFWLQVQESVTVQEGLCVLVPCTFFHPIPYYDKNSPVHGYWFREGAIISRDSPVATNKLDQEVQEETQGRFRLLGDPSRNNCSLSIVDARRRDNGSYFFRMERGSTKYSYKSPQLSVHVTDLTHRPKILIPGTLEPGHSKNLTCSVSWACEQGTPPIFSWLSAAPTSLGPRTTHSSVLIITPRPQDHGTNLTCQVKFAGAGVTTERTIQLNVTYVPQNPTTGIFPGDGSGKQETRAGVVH
T5 sequence (P20138 18-364 H45E): as the sequence (P20138 18-364 L78T) above, with H28E, T61L counted along it
T4 sequence (P20138 18-364 W22A): as the sequence (P20138 18-364 L78T) above, with W5A, T61L counted along it
Chain of Mutant CD33-GFP M10 (Y127A) on 293FT cells (P20138 18-364 Y127A): as the sequence (P20138 18-364 L78T) above, with T61L, Y110A counted along it
Chain of Mutant CD33-GFP M9 (Y49, 50A) on 293FT cells (P20138 other isoform, or with tags, fused parts or gaps mutant): as the sequence (P20138 18-364 L78T) above, with Y32A, Y33A, T61L counted along it
Chain of Mutant CD33-GFP JS24 (Q24E) on 293FT cells (P20138 18-364 Q24E): as the sequence (P20138 18-364 L78T) above, with Q7E, T61L counted along it
Chain of Mutant CD33-GFP M14 (E170R) on 293FT cells (P20138 18-364 E170R): as the sequence (P20138 18-364 L78T) above, with T61L, E153R counted along it
Chain of Mutant CD33-GFP JS23 (L23N) on 293FT cells (P20138 18-364 L23N): as the sequence (P20138 18-364 L78T) above, with L6N, T61L counted along it
Chain of Mutant CD33-GFP JS25 (V25M) on 293FT cells (P20138 18-364 V25M): as the sequence (P20138 18-364 L78T) above, with V8M, T61L counted along it
T2 sequence (P20138 18-364 K52A): as the sequence (P20138 18-364 L78T) above, with K35A, T61L counted along it
Chain of Mutant CD33-GFP N20D on 293FT cells (P20138 18-364 N20D): as the sequence (P20138 18-364 L78T) above, with N3D, T61L counted along it
Chain of Mutant CD33-GFP M13 (R91E) on 293FT cells (P20138 18-364 R91E): as the sequence (P20138 18-364 L78T) above, with T61L, R74E counted along it
Chain of Mutant CD33-GFP JS28 (S28L) on 293FT cells (P20138 18-364 S28L): as the sequence (P20138 18-364 L78T) above, with S11L, T61L counted along it
Chain of Mutant CD33-GFP M15 (Q171A) on 293FT cells (P20138 18-364 Q171A): as the sequence (P20138 18-364 L78T) above, with T61L, Q154A counted along it
T3 sequence (P20138 18-364 F43N): as the sequence (P20138 18-364 L78T) above, with F26N, T61L counted along it
Chain of Mutant CD33-GFP M17 (F21Y) on 293FT cells (P20138 18-364 F21Y): as the sequence (P20138 18-364 L78T) above, with F4Y, T61L counted along it
T6 sequence (P20138 18-364 N99A): as the sequence (P20138 18-364 L78T) above, with T61L, N82A counted along it
Chain of Mutant CD33-GFP M12 (G88S) on 293FT cells (P20138 18-364 G88S): as the sequence (P20138 18-364 L78T) above, with T61L, G71S counted along it
Chain of CD33-GFP fusion protein, wild type (WT), on 293FT cells (P20138 18-364): as the sequence (P20138 18-364 L78T) above, with T61L counted along it
T7 sequence (P20138 18-364): as the sequence (P20138 18-364 L78T) above, with T61L counted along it
T1 sequence (P20138 18-364 R98D): as the sequence (P20138 18-364 L78T) above, with T61L, R81D counted along it
Chain of Mutant CD33-GFP M4 (R122D) on 293FT cells (P20138 18-364 R122D): as the sequence (P20138 18-364 L78T) above, with T61L, R105D counted along it
Chain of Mutant CD33-GFP M5 (AEAD), quadruple mutant, on 293FT cells (P20138 other isoform, or with tags, fused parts or gaps mutant): as the sequence (P20138 18-364 L78T) above, with W5A, H28E, T61L, N82A, R105D counted along it

B1: sdCD33_6 (VHH)
VHH: EVQLVESGGGLVQPRGSLRLSCVVSGSMSSIYSMSWYRQPPGKQRELVAHITTTGTTNYIDSVKGRFTISIDNDINVIYLQMNTLKPEDTAVYYCNAGLKAGPGPRLDYWGLGTQVTVSS
notes: sdAb from a naive llama phage library; also called 416; sdAb416
Octet signal [1]: 0.514
Octet signal [2]: 0.565
Octet signal [3]: 0.456
FACS binding data [4]: 98.6
FACS binding data [5]: 98.9
FACS binding data [6]: 97.9
Octet signal [7]: 0.438
Octet signal [8]: 0.697
Octet signal [9]: 0.22
Octet signal [10]: 0.376
FACS binding data [11]: 1.25
FACS binding data [12]: 96.6
FACS binding data [13]: 98.7
binding result (CD33 on MOLM-13 cells): binds
Octet signal [14]: 0.34
FACS binding data [15]: 45.1
FACS binding data [16]: 99
FACS binding data [17]: 99
FACS binding data [18]: 94.3
FACS binding data [19]: 99
FACS binding data [20]: 99.1
FACS binding data [21]: 98.9
FACS binding data [22]: 99.2
FACS binding data [23]: 98.9
FACS binding data [24]: 99.6
FACS binding data [25]: 99.1
FACS binding data [26]: 80.8
FACS binding data [27]: 99.8
FACS binding data [28]: 99.6
FACS binding data [29]: 99.3
FACS binding data [30]: 99.1
FACS binding data [31]: 98.6
FACS binding data [32]: 0.24
FACS binding data [33]: 98.8
Octet signal [34]: 0.261
Octet signal [35]: 0.229

B2: sdCD33_11 (VHH)
VHH: AVQLVESGGGLVQAGGSLRLSCAASGDTFANYAMGWFRQAPGKEREFVAAISWSDSSTHYADSVKGRFTIPRDNAKNAVYLQMDQLKPEDMAVYYCYAYIRGVGEVRYVDYWGQGTQVTVSS
notes: sdAb from a naive llama phage library; also called 430; sdAb430
Octet signal [1]: -0.227
Octet signal [2]: 0.136
Octet signal [3]: 0.0436
FACS binding data [4]: 98.5
FACS binding data [5]: 97.1
FACS binding data [6]: 98.8
Octet signal [7]: -0.112
Octet signal [9]: -0.377
Octet signal [10]: -0.108
FACS binding data [11]: 99.4
FACS binding data [12]: 99.3
FACS binding data [13]: 99.3
binding result (CD33 on MOLM-13 cells): binds
Octet signal [14]: -0.169
FACS binding data [15]: 73.8
FACS binding data [16]: 97.4
FACS binding data [17]: 97.5
FACS binding data [18]: 99.2
FACS binding data [19]: 99.7
FACS binding data [20]: 1.01
FACS binding data [21]: 94.2
FACS binding data [22]: 98.7
FACS binding data [23]: 97.2
FACS binding data [24]: 99.7
FACS binding data [25]: 96.1
FACS binding data [26]: 97.4
FACS binding data [27]: 99.4
FACS binding data [28]: 99.8
FACS binding data [29]: 98.4
FACS binding data [30]: 98.5
FACS binding data [31]: 99.6
FACS binding data [32]: 0.79
Octet signal [36]: -0.268
FACS binding data [33]: 97.6
Octet signal [34]: -0.29
Octet signal [35]: -0.212

B3: sdCD33_5 (VHH)
VHH: QVQLQESGGGLVQPGGSLRLSCAASGSVFSIYAMAWYRQAPGKQRELVAVITSGGATNYADSVKGRFTISRDIAKKTLYLQMNTLKPEDTAVYYCYAHLLIQPFDRFYDYWGQGTQVTVSS
notes: sdAb from a naive llama phage library; also called 413; sdAb413
Octet signal [1]: 0.0667
Octet signal [2]: 0.648
Octet signal [3]: 0.483
FACS binding data [4]: 97
FACS binding data [5]: 91.4
FACS binding data [6]: 97.5
Octet signal [7]: 0.248
Octet signal [8]: 0.63
Octet signal [9]: -0.0796
FACS binding data [11]: 76.4
FACS binding data [12]: 5.93
FACS binding data [13]: 96.8
binding result (CD33 on MOLM-13 cells): binds
Octet signal [14]: 0.15
FACS binding data [15]: 58.5
FACS binding data [16]: 98.2
FACS binding data [17]: 56.7
FACS binding data [18]: 98.4
FACS binding data [19]: 99.5
FACS binding data [20]: 0.79
FACS binding data [21]: 90.2
FACS binding data [22]: 98.5
FACS binding data [23]: 98.6
FACS binding data [24]: 99.4
FACS binding data [25]: 84.6
FACS binding data [26]: 98.3
FACS binding data [27]: 49.2
FACS binding data [28]: 99.3
FACS binding data [29]: 76
FACS binding data [30]: 98.6
FACS binding data [31]: 97
FACS binding data [32]: 0.81
Octet signal [36]: -0.0586
FACS binding data [33]: 98
Octet signal [34]: -0.0887
Octet signal [35]: -0.024
